# According to the supplement of paper PMC9170038:
# System: K4 kissing-loop RNA reporter
# Experiment: apparent KD of K4 kissing-loop reporter; higher = weaker reporter binding
# Details: Eterna round: R107; input ligand: none
# Protocol: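 RNA-MaP round R107: designed RNA switches with theophylline, tryptophan, arginine or FMN aptamers are transcribed on-chip within common flanks. They are titrated with a labelled K4 kissing-loop RNA reporter in RNA-MaP buffer (100 mM Tris pH 7.5, 80 mM KCl, 4 mM MgCl2), without ligand or with the indicated ligand. Median apparent KD per design.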
# 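Also: bound reporter read as fluorescence of individual clusters on recovered sequencing chips by microscopy, with normalized cluster intensities fitted with a binding model.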
row,Sequence,apparent KD of K4 kissing-loop reporter [µM]
1,GUGGUUUACGUAGGAUAUCGAUGAUGAGUAAAUGGAGUGAUGUUCCGAGAUUGAAUAUGAGAUGAGCGAGAAGGGCGGUUUAUGC [FMN B Same State; Euporia Solution 2],0.0314
2,UAAGACAUGAAAGGAUAUCCGAUAUGGAGCCUUUAGUGAUGUUAGGAGCUAGCCGUAGACAAGAUCGGAGAAGGUUCAACCCACA [theeternabot_sameState_KL_FMN_B_13],0.646
3,CCGGCCCAGCCGGAUACCAGUGCGCCGCAGGGAACGGCGGGCCCAGAGUGAUGUUCGGGACACCCUUGGCAGCCGCCUGGGUCGU [#2 Same State - Theophylline B Attempt #28 (HarryS)],0.365
4,UAUACGAAGCAGUGAUGUUGCUUAUGAGAAGGAGCGCACGAAAGUGCAGGUAGGUCGCUCAGCCAUGUGGACGAAAACGUCCACA [whbob_SS_Arginine_A_sa110],0.109
5,GUGCGGUGGAGGCUACCGCUACUCUGAGAAGGAGCGCAGAUGACUGCAGGUAGGUCGCUUAGAGCUUGCAGUGAUGUUGCAAGUU [Teorzaqu],0.188
6,UGGAGUUGACGAAAAGUCAACUCCUGAGAAGGAGCGGACGAAAGUCCAGGUAGGUCGCUCACUACCAGUGAUGUUGGUAAUUCAA [#OpenEnded 3],0.277
7,GGGUAUUACGGAGGAUAUGCACUGAGGAGGAGAAUAUAGUGAUGUUAUAUAAGAGGAAGGAGAAGAGUAGAAGGCCGUGGUAUUG [SSFMNB.H],0.281
8,AUUUAAUGUAUAGAUUAUAUACAUUAUUCAGAGGAUAUGCUUUGAAGCAGAAGGCUGGAUGUAGUGAUGUUGCAAUUUUAAUUUA [JR_SSFMNA_Sub006],0.236
9,CCAGGACGAUGAGGAGGAUGAAUUACUGAAGGAGCGCAUAUGGUUGCAGGUAGGUCGCGGUGAACAAGUAUAGUGAUGUUAUAUC [SSArgA.S],0.538
10,CAGAUCACAGAGUGAUGUUCUGUGUCCGAAGGAGCGCGCGAGAGCGCAGGUAGGUCGCGGAUACAGUUGACGUACCAUCUAGACA [Arg A Ex t3b],0.278
11,GAAUUAUGUAGAAGGAGCGUCAGAAGGUAUAGGUGCGAGUGAUGUUUGGACCUGUUAAUUUGACAGGUAGGUCGCUACAGAAGGA [KL-SSArg B20 #analogue],0.448
12,UCUGGAGCAUAUGAUACCAGCAGUGAGAGACAGGAAGUAUAGUGAUGUUAUAUGAGAGAAUGCCCUUGGCAGCGUGUGUAGUGGG [SSTheophylB.N],0.128
13,AAGUGAUGUUGUAGUGAUGUUGUGAUGUUGCAGGAUAUAUAGUGAUGUAGAAGGGUAAGUACUGAUGUUGUUAGUGAGUGAUGUU [wwzrrmullin],0.0879
14,UGGUUUAACUGAAGGAGCGGCAAUUGAUAAGUAGAUAUAGUGAUGUUAUAUAAGAUAGAGAGCCAGGUAGGUCGCAGAGGUGUUU [ExArgB.Q],0.232
15,ACCUACGAUCACAAAAGUGAUUGUAGGAUCUAGGAUAUGCUGAAAAGCAGAAGGAGAGUGAUGUUCUCAACUCACGAAAGUGAGA [FmnAX 1 #OpenEnded #K4Late],0.183
16,CCAUCGCUAUUCGAUACCAGUCAUUAAAUCUUUGGUUUAAUAAAGGAGUGAUGUUCCCAAGACCCUUGGCAGCGAAUAGUGAUGG [Theophylline B K4 9],0.198
17,GGCUCCUACGCAGGAUAUAGUAGCCGAGAGUGAUGUUCUACGGCGUUUGCCGAUUUAGUCACAGAUCUAGAAGGGUGUAGGAGCC [XFMN-B PiClone],1.13
18,AGACUUCACCGAAGGAGCGACGUAGCCUAGUGAUGUUAGGCAAGAGAGAAAUCUCUUAUACGUCAGGUAGGUCGCGGUGAAGUCA [Omei KL Arginine B SS C v2],0.162
19,GUAGGAUGAGGAGGAGGAUGAAUUACUGAAGGAGCGCAAAGAAAUGCAGGUAGGUCGCGGUAAAGAAGUAUAGUGAUGUUAUAUC [#08 K4 Arginine A Same State],0.463
20,CUCUUCUUUCUUUUAGUGAUGUUAAAUUAGCGAGGACCGGUACGGCCGCCACUCGUAUAGCUGGAAUGACUGUGCGAGGGUUUGU,0.905
21,AGACUACCACACUGUCAAUAGACAGUGAACUAGGAUAUGCUGAUAAGCAGAAGGAGUGAUGUUCCCAGGUAGUCAAUAAAAUAAU [FmnAX 13 C66],0.231
22,GGACGCCGGUCGGCCGCCACUCACAGCAGCCAGUGAUGUUGGAUUGUAGCGGAGUGAUGUUCCGAGAGGACCGGGACUGCAGUCU [Same State Tryptophan B GF 11],0.153

# Same assay, conditions: Eterna round: R107; input ligand: theophylline 20 uM
row,Sequence,apparent KD of K4 kissing-loop reporter [µM]
1,CUGUUUGGUUGAGAGGUUGGGCGGAAUGAUACCAGUAUAUAAGAAUACCCUUGGCAGCAUAAGAAAGAUAUAGUGAUGUUGUAUA [SSTheophA.K],0.536
2,UCGCCAAAGUCGGCCGCCACUCCGGGCCCUAUAAAUGGGCGCAGUGAUGUUGCGGCUAGGCCUCUGAGGACCGGGACUUUGUAAA [Tiesgeza],0.0325
3,AAUACCUGAGUGAUGUUCAGGGAAUCAGAAGGAGCGUCAAUUAUGACAGGUAGGUCGCUGAAUACAUGUGUGUAUACACAUGUAC [Arg A SS t4],0.243
4,AAUAGGGAUAGUGAUGUUAUCCCUUAUGAUACCAGUGCCAUCGGACACCCUUGGCAGCAUACGGGCAGUGAUGUUGUUCUUGGAG [Exclusion Theophylline A GF 15],0.0765
5,UUGGACCUUAGCCUCAAUAGAACUUUGUUACGAGGACCGGUACGGCCGCCACUCGUCGGGCUCCGAUAGCCAGUGAUGUUGGCAA [theeternabot_sameState_KL_Trp_A_16],1.01
6,AGGAUGUAGUGAUGUUAUAUAAGAAGUAAACGAGGACCGGUACGGCCGCCACUCGAAACGGCUACUAGCGCGUUGCGAGGUGUGC [ExTryptoA.Cf],0.51
7,GUCUGUGUACUAGGAUAUGGUUGCAGGCAGUCAGGUCGCCUUUUCGGCGGCCAGUGAUGUUGGUGGCCAGAAGGAGUACGUGAUG [Raorin],0.721
8,UGACAUUGCUCAGAUACCAGACUUGAGGAUCACCCAAGUGCCAAAACGUACUAAAUAAAAGUCCCUUGGCAGCUGAGCAAUGUCU [TheoBX 13],0.088
9,CGCCGAUUGUCGGAGUGAUGUUCCCGGGAUACCAGCACGUCGUCAUGCCCUUGGCAGCCCAACAGACCAUUUUAAAGGCUAGCUG [theeternabot_sameState_KL_Theo_A_35],0.221
10,CUCGUGGGUUUGAGAGGGUUUGUGGGAAGUGAGGAUAUUUAGGGAGAAAGAAGGCACUAUAAAAUAUAGUGAUGUUAUAUAAGGG [SSFMNA.L],0.194
11,AAUUAAUACAGAAGGAGCGUGAAAUUAUCUACUUUUAACUUAGCGAGUGAUGUUCGUUUUUCACAGGUAGGUCGCUGUAUAUUUA [JR_ExcArginiB_Sub009],0.192
12,UAAAUAAAAUCCUAGUGAUGUUAGGAUAUGUAGGAUAUCGGGAUACCGAGAAGGACAGAAGGAGGAGUGAUGUUCCUCAAUAAAU [FmnAX 30 #DoubleAptamer #DoubleK4 #OpenEnded],0.0745
13,AUCAUUAGUUCGGCCGCCACUCCAGUGAUGUUGGAGGGACGCAUAAUAUGCGCGCGGCCAACUAGGAGGACCGGGAACUUUAAGC [Intionge],0.126
14,GAAUAAUAAGUAGCAGUGAUGUUGCUACUACGAGGACCGGUACGGCCGCCACUCGAAUACGAGUGGACACUGCUACUACCACUCG [(H1)-(H2)-(Trp1)-(Trp2)-(T)'-(H)'-(T)''_Design8],0.122
15,AGACUUCACCGAAGGAGCGACGUGGUCUAGUGAUGUUAGACACGAGAGAAAUCUCGUAUACGUCAGGUAGGUCGCGGUGAAGUCA [Omei KL Arginine B SS C v9],0.117
16,UUUAAAUAUAGUGAUGUUAUAUAACAAUGACGAGGACCGGUACGGCCGCCACUCGAGAGAGAUAAUGAUAAAAUAAAUAAUUUUC [AstrosSSTrypA#1],0.628

row,Sequence,apparent KD of K4 kissing-loop reporter [µM]
1,UUUAAAUAUAGUGAUGUUAUAUAACAAUGACGAGGACCGGUACGGCCGCCACUCGAGAGAGAUAAUGAUAAAAUACAUAAUUUUC [AstrosSSTrypA#2],0.709
2,CACGAUGAAUUCUCUAGGAGUGAUGUUUUUCGAGGACCGGUACGGCCGCCACUCGGACGACGAGUGUGGUAGCGGGCUGAAGACU [zgullin],0.239
3,UAUUCUGUUCGAAAGAACGGAAUUUCGGAAGGAGCGAGAGAAAUCUCAGGUAGGUCGCCGAAAUUAUUAGAUAGUGAUGUUAUCU [Arginine A K4 4],0.177
4,ACAGUUGCUAGUGAUACCAGACUAGCACUACGUAGUAUGUCAAGUGAUGUUUGACAACUAGUCCCUUGGCAGCGCGAUACGACUG [#12 K4 Theophylline B Same State],0.136
5,AAGAGAUAGGGAGGAUAUGCCCUAUUGAGAACCGAGUGAUGUUCGGUAGGACAAAUAGUCCACAGGGUAGAAGGCCCACAUCACA [SS FNM B Tesla 2],0.476
6,GUGGUUUACGUAGGAUAUCGAUGAUGAGUAAAUGGAGUGAUGUUCCGAGAUUGAAUAUGAGAUGAGCGAGAAGGGCGGUUUAUGC [FMN B Same State; Euporia Solution 2],0.0373
7,UAAGACAUGAAAGGAUAUCCGAUAUGGAGCCUUUAGUGAUGUUAGGAGCUAGCCGUAGACAAGAUCGGAGAAGGUUCAACCCACA [theeternabot_sameState_KL_FMN_B_13],0.705
8,CCGGCCCAGCCGGAUACCAGUGCGCCGCAGGGAACGGCGGGCCCAGAGUGAUGUUCGGGACACCCUUGGCAGCCGCCUGGGUCGU [#2 Same State - Theophylline B Attempt #28 (HarryS)],0.258
9,UAUACGAAGCAGUGAUGUUGCUUAUGAGAAGGAGCGCACGAAAGUGCAGGUAGGUCGCUCAGCCAUGUGGACGAAAACGUCCACA [whbob_SS_Arginine_A_sa110],0.137
10,GUGCGGUGGAGGCUACCGCUACUCUGAGAAGGAGCGCAGAUGACUGCAGGUAGGUCGCUUAGAGCUUGCAGUGAUGUUGCAAGUU [Teorzaqu],0.132
11,UGGAGUUGACGAAAAGUCAACUCCUGAGAAGGAGCGGACGAAAGUCCAGGUAGGUCGCUCACUACCAGUGAUGUUGGUAAUUCAA [#OpenEnded 3],0.272
12,GGGUAUUACGGAGGAUAUGCACUGAGGAGGAGAAUAUAGUGAUGUUAUAUAAGAGGAAGGAGAAGAGUAGAAGGCCGUGGUAUUG [SSFMNB.H],0.277
13,AUUUAAUGUAUAGAUUAUAUACAUUAUUCAGAGGAUAUGCUUUGAAGCAGAAGGCUGGAUGUAGUGAUGUUGCAAUUUUAAUUUA [JR_SSFMNA_Sub006],0.25
14,CCAGGACGAUGAGGAGGAUGAAUUACUGAAGGAGCGCAUAUGGUUGCAGGUAGGUCGCGGUGAACAAGUAUAGUGAUGUUAUAUC [SSArgA.S],0.321
15,CAGAUCACAGAGUGAUGUUCUGUGUCCGAAGGAGCGCGCGAGAGCGCAGGUAGGUCGCGGAUACAGUUGACGUACCAUCUAGACA [Arg A Ex t3b],0.246
16,GAAUUAUGUAGAAGGAGCGUCAGAAGGUAUAGGUGCGAGUGAUGUUUGGACCUGUUAAUUUGACAGGUAGGUCGCUACAGAAGGA [KL-SSArg B20 #analogue],0.304
